Experimental data: CN109627340A (UNIV SHANGHAI JIAOTONG; JECHO LABORATORIES INC, dated 2019)

Biological target: T1, 人PRLR胞外结构域 (Sino Biological) (human, UniProt P16471 25-234)
T1 construct: Bought recombinant protein (Sino Biological); also called PRLR胞外区; PRLR ECD
T1 sequence (looked up): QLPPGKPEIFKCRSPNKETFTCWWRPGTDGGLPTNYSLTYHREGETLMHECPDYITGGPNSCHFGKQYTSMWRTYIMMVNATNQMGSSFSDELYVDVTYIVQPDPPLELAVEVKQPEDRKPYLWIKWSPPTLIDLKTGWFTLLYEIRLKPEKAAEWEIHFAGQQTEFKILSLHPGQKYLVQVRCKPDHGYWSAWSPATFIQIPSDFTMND
Assay: SPR, Biacore T200, antigen amine-coupled to CM5 chip

Kd: 2.31 nM
koff: 0.000679 s⁻¹
kon: 294000 M⁻¹ s⁻¹
B1: PRLR-DbsAb (CD3×PRLR双特异性抗体) (bispecific antibody, human IgG1, kappa)
heavy 1: not shown
light 1: DIQMTQSPSSLSASVGDRVTITCSASSSVSYMNWYQQTPGKAPKRWIYDTSKLASGVPSRFSGSGSGTDYTFTISSLQPEDIATYYCQQWSSNPFTFGQGTKLQITRTVAAPSVFIFPPSDEQLKSGTASVVCLLNNFYPREAKVQWKVDNALQSGNSQESVTEQDSKDSTYSLSSTLTLSKADYEKHKVYACEVTHQGLSSPVTKSFNRGEC
heavy 2: not shown
light 2: not shown
notes: also called PRLR-DsbAb; CD3和PRLR双特异性抗体
